Entries after “also recorded” stand apart in the source; their conditions may differ. No end group written: not given here.
Columns and labels:
[1] = biological target: T1, Cathepsin K (CTSK) (Homo sapiens, UniProt P43235); assay: Counter-screening of CTSL1 FRET substrates with Cathepsin K; format: biochemical; settings: specific activity
T1 sequence (P43235 115-329): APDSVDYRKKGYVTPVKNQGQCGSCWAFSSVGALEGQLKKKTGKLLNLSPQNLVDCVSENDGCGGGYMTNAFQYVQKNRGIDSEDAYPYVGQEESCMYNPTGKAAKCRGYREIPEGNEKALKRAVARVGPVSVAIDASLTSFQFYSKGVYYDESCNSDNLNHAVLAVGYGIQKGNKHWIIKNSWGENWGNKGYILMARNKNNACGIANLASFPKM
Protocol: Counter-screening of CTSL1_1 and CTSL1_2 was performed with the enzyme Cathepsin K (CTSK). […] For comparison, the specific activity for reference substrates such as Z-LR-AMC and Z-FR-AMC is 15,000-25,000 pmol/min/μg, with the average value indicated by a dashed line in FIG. 47.

[2] = biological target: T2, CTSL1 (Homo sapiens, UniProt P07711); assay: 30-mer tandem linker library MSP-MS, CTSL1; format: biochemical
Protocol: (§1) Protease specificity screening was performed using Multiplexed Substrate Profiling by Mass Spectrometry (MSP-MS), the method described in, e.g. O'Donoghue A. J. et al., Nat Methods., 2012; 9(11): 1095-1100. This method employs a physico-chemically diverse peptide library as substrates for proteases, and reactions are monitored over time with mass spectrometric detection of cleaved products. The resulting cleavages are assessed for specific cleavage in the enzyme-treated sample by comparison with results from a no-enzyme control incubation.
(§2) Enzymes were activated and assayed following the manufacturer's recommendations.
(§3) For CTSL1, enzyme was activated by pre-incubation in assay buffer (50 mM MES, 5 mM DTT, 1 mM EDTA, pH=6) for 15 min. MSP-MS reactions were then started with the mixing of enzyme and substrate, at final CTSL1 concentration of 0.04 ng/μl (0.77 nM), and peptide substrate concentration at 500 nM.
This hypothesis was tested in the context of the hybrid linker design experiment. Shown in FIG. 46 are the results of cleavage of two matched 30-mer peptides with the following sequences:
(§4) To analyze the catalytic efficiency of candidate tandem linker designs, a tailored library approach using MSP-MS was applied. For the tailored library, a set of nineteen synthetic peptides, 30 amino acids in length (30-mers), were designed to test whether sequence context affects the efficiency of cleavage. Peptides were assayed in a multiplex format together as a substrate library with individual recombinant enzymes, using MSP-MS. For quantitative comparisons, kinetic analysis was performed over a time course, and results are reported either as a catalytic efficiency kcat/KM for well-behaved first-order kinetics, or as observed rates as kobs for more complex kinetic behavior.
(§5) Catalytic efficiency (kcat/KM) estimations were used to rank the top cleaved substrates in the MSP-MS reaction. Peptides were quantified by mass spectrometric label-free quantitation from the MS1 precursor ion peak areas for each peptide. Enzyme progress curves were modeled from six-time point measurements in GraphPad Prism. Data were fitted using non-linear least squares fitting to the first order kinetics equation:
(§6) [formula] where Y=percent product formation or substrate consumption, and t=time. The observed rate is a function of the enzyme concentration [E0], and an observed catalytic efficiency (kcat/KM) in units M^−1s^−1

[3] = biological target: T2, CTSL1; assay: In vitro FRET kinetics with CTSL1; format: biochemical
Protocol: as §2, §3
Additional in vitro kinetic experiments were performed to characterize a new candidate motif for CTSL1 enzyme; the CTSL1_2 motif has the sequence […] (SEQ ID NO: 199). […] Yet, initial experiments with the CTSL1_2 FRET substrate were inconclusive, possibly due to artifacts in the FRET assay; therefore, a new FRET peptide construct was designed with the 9-mer sequence […] (SEQ ID NO: 236).
All of the FRET substrates used in these studies have a methoxycoumarin (Mca) fluorophore and dinitrophenyl-lysyl (Dnp) quencher pair at the N- and C-termini of the sequences, respectively.

[4] = biological target: T3, Hepsin (Homo sapiens, UniProt P05981); assay: 30-mer library counter-screening MSP-MS, Hepsin; format: biochemical
T3 construct: purchased R&D Systems (Bio-techne) 4776-SE
Protocol: as §1, §2
Hepsin was pre-activated overnight at 37° C. in the manufacturer recommended buffer: 100 mM TRIS, 10 mM CaCl2, 150 mM NaCl, 0.05% Brij-35, pH 8.0. Activity was measured with 2.4 or 24 nM enzyme in the buffer: 50 mM TRIS HCl at pH 7.4.
(§7) Counter-screening was performed against the enzymes Thrombin, Factor Xa and Hepsin using this library as well, and for calibration of activity, a positive-control peptide bearing favorable motifs for these enzymes was also designed (ALU30-19).
as §5, §6
(§8) Counter-screening with Thrombin, Factor Xa and Hepsin was also performed following the same analysis. The library peptide Alu30-19 was designed to include authentic sites for each enzyme, for comparison of overall cleavage efficiency as well as cleavage site specificity within each motif. The substrate designed for Factor Xa has the motif FNPR|TFGS (SEQ ID NO: 248), derived from the Factor Xa cleavage site in Thrombin. The substrate motif for Thrombin was FPR|, a common tool substrate motif. The substrate motif for hepsin was RKRR|GSRG (SEQ ID NO: 249) from filaggrin.

[5] = test system: activated T cells relative to NK cells; settings: cited from earlier work
[6] = cited from earlier work
[7] = biological target: T4, Factor Xa (Homo sapiens, UniProt P00742); assay: 30-mer library counter-screening MSP-MS, Factor Xa; format: biochemical
T4 construct: purchased R&D Systems (Bio-techne) 1063-SE-010
Protocol: as §1, §2
Factor Xa was assayed at 4.7 nM enzyme, at 37° C. in the manufacturer recommended buffer: 50 mM TRIS, 10 mM CaCl2, 150 mM NaCl, pH 7.5.
as §7
as §5, with “Data were fitted using non-linear least squares fitting to the first order kinetics equation:” left out

[8] = biological target: T5, Thrombin (Homo sapiens, UniProt P00734); assay: 30-mer library counter-screening MSP-MS, Thrombin; format: biochemical
T5 construct: purchased R&D Systems (Bio-techne) 2196-SE-200
Protocol: as §1, §2
Thrombin was activated following the manufacturer's recommended conditions by pre-incubation with the enzyme with thermolysin for 15 min, and then the thermolysin was quenched with 1,10 phenanthroline treatment. Activated thrombin was assayed at 1.2 nM in activation buffer: 50 mM TRIS HCl, 10 mM CaCl2, 150 mM NaCl, 0.05% (w/v) Brij-35, pH 7.5.
as §7, §5, §6, §8

[9] = biological target: T6, FAPα (Homo sapiens, UniProt Q12884); assay: 30-mer tandem linker library MSP-MS, FAPα; format: biochemical
T6 construct: purchased R&D Systems (Bio-techne) 930-ADB-010
T6 sequence (Q12884 1-760): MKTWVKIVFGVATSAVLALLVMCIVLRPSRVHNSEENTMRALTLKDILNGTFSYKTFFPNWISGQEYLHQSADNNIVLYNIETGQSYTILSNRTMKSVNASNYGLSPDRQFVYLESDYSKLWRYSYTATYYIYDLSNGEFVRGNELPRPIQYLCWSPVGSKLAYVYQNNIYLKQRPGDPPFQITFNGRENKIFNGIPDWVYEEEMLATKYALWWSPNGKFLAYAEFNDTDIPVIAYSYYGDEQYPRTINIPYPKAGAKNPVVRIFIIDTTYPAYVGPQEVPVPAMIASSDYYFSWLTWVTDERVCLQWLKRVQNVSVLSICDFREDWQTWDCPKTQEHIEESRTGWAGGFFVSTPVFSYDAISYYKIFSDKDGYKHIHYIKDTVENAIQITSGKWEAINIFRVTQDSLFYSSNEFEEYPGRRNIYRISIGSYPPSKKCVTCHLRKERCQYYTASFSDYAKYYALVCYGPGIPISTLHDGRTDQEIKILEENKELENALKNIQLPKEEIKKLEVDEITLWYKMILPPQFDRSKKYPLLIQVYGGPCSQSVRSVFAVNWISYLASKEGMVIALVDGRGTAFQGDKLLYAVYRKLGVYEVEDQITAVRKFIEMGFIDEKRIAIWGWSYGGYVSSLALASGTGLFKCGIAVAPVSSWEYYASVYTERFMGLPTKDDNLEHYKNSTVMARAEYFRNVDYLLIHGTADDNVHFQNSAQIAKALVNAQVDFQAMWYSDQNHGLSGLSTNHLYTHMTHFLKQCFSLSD
Protocol: as §1, §2
FAPα activity was tested with fluorescence detection using a generic Z-GP-AMC substrate. For FRET assays, the final enzyme concentration was 5 nM and the buffer was 50 mM TRIS HCl, 1 M NaCl, 1 mg/mL BSA, pH 7.5.
as §4, §5, §6

[10] = biological target: T7, MMP9 (Homo sapiens, UniProt P14780); assay: 30-mer tandem linker library MSP-MS, MMP9; format: biochemical
T7 construct: purchased R&D Systems (Bio-techne) 911-MP-010
Protocol: as §1, §2
MMP9 was activated by incubation with 1 mM p-amino phenyl mercuric acetate (prepared from a stock at 100 mM in DMSO) for 24h at 37° C. in activation buffer: 50 mM TRIS HCl (pH 7.5), 10 mM CaCl2, 150 mM NaCl, 0.05% Brij35. The final enzyme concentration used for fluorescence assays was 2.5 nM.
To analyze the catalytic efficiency of candidate tandem linker designs, a tailored library approach using MSP-MS was applied. […] For quantitative comparisons, kinetic analysis was performed over a time course, and results are reported either as a catalytic efficiency kcat/KM for well-behaved first-order kinetics, or as observed rates as kobs for more complex kinetic behavior. […]

[11] = test system: full set of five targeted enzymes; thrombin, Factor Xa, and hepsin; assay: 30-mer tandem linker design: comparison of cleavage efficiencies across enzymes; format: biochemical, human
Excerpt: To generate the most efficient tandem linker, the cleavage efficiencies for each of the targeted enzymes toward the 30-mer library peptides can be compared (FIG. 64).
Replacement of the ADAM17_2 motif with ADAM17_i may also enhance activity toward FAP-alpha and CTSL1, even if ADAM17 activity enhancement is minor, and hepsin susceptibility would be predicted to be reduced.

[12] = matched 30-mer peptides SEQ ID NO: 207 (CTSL1_1) and 219 (CTSL1_2)

T3 sequence (P05981 163-417 limits assumed): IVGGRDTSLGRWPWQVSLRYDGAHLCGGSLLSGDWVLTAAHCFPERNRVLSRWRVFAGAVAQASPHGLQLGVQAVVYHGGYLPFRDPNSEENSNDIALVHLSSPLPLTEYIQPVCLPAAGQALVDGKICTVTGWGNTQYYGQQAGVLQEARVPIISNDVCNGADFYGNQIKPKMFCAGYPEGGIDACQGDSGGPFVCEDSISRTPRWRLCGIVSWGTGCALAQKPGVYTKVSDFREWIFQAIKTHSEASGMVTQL
T3 sequence (P05981 1-162 partner limits assumed): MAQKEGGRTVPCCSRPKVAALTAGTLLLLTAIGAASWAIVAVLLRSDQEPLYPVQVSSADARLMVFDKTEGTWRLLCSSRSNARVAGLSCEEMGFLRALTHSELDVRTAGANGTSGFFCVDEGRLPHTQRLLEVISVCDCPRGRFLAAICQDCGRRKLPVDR
T2 sequence (P07711 114-333): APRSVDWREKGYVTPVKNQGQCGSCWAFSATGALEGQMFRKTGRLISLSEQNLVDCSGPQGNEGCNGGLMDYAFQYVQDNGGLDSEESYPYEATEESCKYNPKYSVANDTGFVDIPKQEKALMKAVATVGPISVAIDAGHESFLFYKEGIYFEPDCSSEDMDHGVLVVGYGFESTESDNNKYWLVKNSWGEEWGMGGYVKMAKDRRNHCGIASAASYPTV
T4 sequence (P00742 235-488 limits assumed): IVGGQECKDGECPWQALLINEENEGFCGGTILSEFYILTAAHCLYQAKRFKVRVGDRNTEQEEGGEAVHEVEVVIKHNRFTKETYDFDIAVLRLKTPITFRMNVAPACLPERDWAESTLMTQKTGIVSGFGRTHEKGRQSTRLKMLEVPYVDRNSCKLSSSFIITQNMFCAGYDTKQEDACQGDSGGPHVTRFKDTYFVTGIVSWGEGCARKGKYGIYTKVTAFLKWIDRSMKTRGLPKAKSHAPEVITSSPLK
T4 sequence (P00742 41-179 partner limits assumed): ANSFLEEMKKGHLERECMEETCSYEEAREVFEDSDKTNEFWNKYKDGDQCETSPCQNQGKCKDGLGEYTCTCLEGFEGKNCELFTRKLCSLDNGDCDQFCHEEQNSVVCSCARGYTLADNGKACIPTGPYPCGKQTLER
T7 sequence (P14780 107-707 limits assumed): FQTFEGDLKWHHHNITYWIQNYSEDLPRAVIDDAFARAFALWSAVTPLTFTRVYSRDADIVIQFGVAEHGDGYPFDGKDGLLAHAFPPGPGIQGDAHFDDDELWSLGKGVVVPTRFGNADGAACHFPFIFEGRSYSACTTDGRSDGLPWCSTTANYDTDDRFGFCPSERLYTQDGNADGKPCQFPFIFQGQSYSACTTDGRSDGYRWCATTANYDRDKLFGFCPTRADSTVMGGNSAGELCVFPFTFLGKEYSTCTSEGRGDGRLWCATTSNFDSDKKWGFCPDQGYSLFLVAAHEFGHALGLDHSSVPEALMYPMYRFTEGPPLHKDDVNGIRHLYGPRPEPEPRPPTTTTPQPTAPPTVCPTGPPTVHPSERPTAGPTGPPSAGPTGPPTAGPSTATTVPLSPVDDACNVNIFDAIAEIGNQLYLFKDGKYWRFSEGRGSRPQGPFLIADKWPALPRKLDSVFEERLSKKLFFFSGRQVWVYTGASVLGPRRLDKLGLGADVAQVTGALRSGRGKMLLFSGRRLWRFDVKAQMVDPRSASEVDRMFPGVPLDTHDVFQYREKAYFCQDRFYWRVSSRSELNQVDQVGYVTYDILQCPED

ALFFSSPP (also: FRET fluorophore and quencher) [CTSL1_2]
Cleavage by CTSK, lower level than the CTSL1_1 substrate [1]: 15 × | Relative efficiency of 30-mer peptide cleavage by CTSL1 [2]: rapidly cleaved | +1 site product formation by CTSL1 [2, 12]: more rapidly formed | −1 site product formation by CTSL1 [2, 12]: did not | Cleavage of 8-mer FRET substrate by CTSL1 ([3]; 8-mer FRET peptide, Mca/Dnp pair): not cleaved | Cleavage of 9-mer FRET substrate by CTSL1 ([3]; 9-mer sequence ALFFSSPPS (SEQ ID NO: 236)): comparable catalytic efficiency to the CTSL1_1 motif; also recorded: cleaved as a 9-mer FRET peptide | Relative efficiency of cleavage by hepsin [4]: cleaved at a much slower rate than CTSL1_1

Bay 50-4798: IL-2 variant IL2/N88R, clinically tested as a low-toxicity version of IL-2
Selectivity of stimulated proliferation [5]: selectively stimulate the proliferation of activated T cells relative to NK cells | Levels of CD4+CD25+ T cells in clinical trials ([6]; cancer patients and HIV patients): increased the levels of CD4+CD25+ T cells | Safety and tolerability in clinical trials ([6]; human, in vivo): considerably safer and more tolerable than aldesleukin

KGGALFKSSFPGGPAGIGPLAQKLKSSGGS [Alu30-5]
Relative efficiency of 30-mer peptide cleavage by Factor Xa [7]: significant cleavage

RGSGGGPAGLYAQGSGGGPAGLYAQGGSGK [Alu30-2]
Relative efficiency of 30-mer peptide cleavage by thrombin [8]: less susceptible to thrombin | Relative efficiency of 30-mer peptide degradation by FAPα [9]: efficiently cleaved | Relative efficiency of 30-mer substrate degradation/cleavage by MMP9 [10]: more efficient than the Alu30-1 peptide

SGGFPRSGGSFNPRTFGSKRKRRGSRGGGG [Alu30-19, reference compound]
Time to complete degradation by Factor Xa [7]: < 5 min | Time to cleavage at all three motifs by hepsin [4]: ≤ 15 min | Apparent catalytic efficiency, hepsin ([4]; order of magnitude): ~10^5 M^−1s^−1

SGPLAQKLKSSGPAGLYAQALFKSSFPGSK [Alu30-16]
Activity toward the full set of five targeted enzymes [11]: generally high activity | Susceptibility to thrombin, Factor Xa, and hepsin [11]: lowest susceptibility
